Measurements from patent publication US20150038427A1 (SYMIC BIOMEDICAL, published 2015).
Ends that are not written are not given here. * marks the point of attachment. Dansyl = CN(C)c1cccc2c(S(=O)(=O)*)cccc12

Assays:
[1] = biological target: T1, collagen; experiment: fluorescence plate binding assay, dansyl peptide on collagen-coated 96-well plate, equilibrium
T1 construct: also called collagen-treated well; collagen surface
Experimental: (§1) Binding assays were done in a 96-well high-binding plate, black with a clear bottom (Costar). Collagen was compared to untreated wells and BSA coated wells. Collagen and BSA were immobilized at 37° C. for 1 hr by incubating 90 μL/well at concentrations of 2 mg/mL in 10 mM HCl and 1× PBS, respectively. Each well was washed 3× with 1× PBS after incubating. Z-SILY was dissolved in 1× PBS at concentrations from 100 μM to 10 nM in 10-fold dilutions. Wells were incubated for 30 min at 37° C. and rinsed 3× with PBS and then filled with 90 μL of 1× PBS. Fluorescence readings were taken on an M5 Spectramax Spectrophotometer (Molecular Devices) at excitation/emission wavelengths of 335 nm/490 nm respectively.

[2] = biological target: T1, collagen; experiment: fluorescence plate binding assay, dansyl peptide on collagen-coated wells, curve fitted to the data of FIG. 3
Experimental: as §1

Kd [1]: 860 nM | EC50 (read off the curve) [2]: ~900 nM
B1: Dansyl-GRRANAALKAGELYKSILYGC (peptide)
peptide: Dansyl-GRRANAALKAGELYKSILYGC
notes: Fluorescently labelled version of SILY, tested as free peptide; also called ZSILY; Z-SILY
